From US20260062466A1
Changes are numbered by the printed parent chain.

B1: 520.D02 (antibody, V domains shown)
VH: QVQLVQSGSELQKPGASVKVSCKASGYTFTENAIIWVRQAPGQGLEWMGRIIRYPGRPTIAQGFTGRFGFSLDTSINTAYLEISNLKAEDTAFFYCAREYCDSSSCSSFDYWGQGTLVTVSS
VL: QSVLTQPPSASGSPGQSVTISCTGTNNDVGIYSYVSWYQQHPGKAPKLMIYEVSKRPSGVPDRFSGSKSGNTASLTVSGLQADDEADYYCSSYAGSNSYVFGSGTKVTVL
B2: 516.F07 (antibody, V domains shown)
VH: EVQLVQSGAEVKKPGESLKISCKGSGYRFTSYWIAWVRQMPGKGLECMGIIYPGDSDTRYSPSFQGQVTISVDKSISTAYLQWSSLKASDTAMFYCARHNNNWSLQGYFDYWGQGTLVTVSS
VL: PSALTQPASVSGSPGQSITISCTGTSSDVGGYNYVSWYQQHPGKAPKLMIYDVSNRSSGVSNRFSGSKSGNTASLTISGLQAEDEADYYCSSYTGSSTSNYVFGTGTKVTVL
B3: 506.C01 (antibody, V domains shown)
VH: QVQLQESGPGLVKPSQTLSLTCTVSGGSISSDDYYWTWIRLPPGKGLEWIGYIFYTGGTYYNPSLKSRVTISLDRSKNQFSLKLSSVTAADTAVYFCARAPETYCSTTNCYKGYFDSWGQGTLVTVSS
VL: DIQMTQSPSSVSASVGDRVTITCRASQGISSWLGWYQQKPGKAPKLLIYAASSLQSGVPSRFSGSGSGTDFTLTISSLQPEDFATYYCQQANSFPRTFGQGTKVEIK
B4: 516.H07 (antibody, V domains shown)
VH: EVQLVESGGGLVQPGGSLRLSCAASGFTFSSYEMNWVRQAPGKGLEWVSYMSYTGSTIYYADSVKGRFTISRDNGKNSLYLQMNSLRVEDTAVYYCARGGVVVAPTYFDYWGQGTLVTVSS
VL: QSVLTQPPSVSGAPGQRVTISCTGSSSNIGAGYDVHWYQQLPGTAPKLLIYHNNNRPSGVPDRFSASKSGTSASLAITGLQAEDEADYYCQSYDSSLSGWVFGGGTKLTVL
B5: 516.H09 (antibody, V domains shown)
VH: QLQLQESGPGLVKPSETLSLTCTVSGGSISSSSYYWGWIRQPPGKGLEWIGSIYYSGSTYYNPSLKSRVTISVDTSKNQFSLKLSSVTAADTAVYYCARHSYCSGGSCYLAPLGDWGQGTLVTVSS
VL: SYVLTQPPSVSVAPGKTARITCGGNNIGSKSVHWYQQKPGQAPVLVIYYDSDRPSGIPERFSGSNSGNTATLTISRVEAGDEADYYCQVWDSSSDFYVFGTGTKVTVL
B6: 516.D09 (antibody, V domains shown)
VH: QVQLVQSGAEVKKPGSSVKVSCKAFGGTFSSSAITWVRQAPGQGLEWMGRIIPIFGTANYAQKFQGRVTITADKSTTTAYMELSSLRSEDTAVYYCALKADSYCSGSSCYPSFDYWGQGTLVTVSS
VL: B5 VL with K38R, I47V, Y49D, F96Q, Y97E, T101G, V105L

Tests used:
Assay in all cases: cell-based or functional assay
[1] = biological target: CHIKV-37997 (virus) (Chikungunya virus strain 37997) (UniProt Q5XXP3)
[2] = biological target: CHIKV-LR 2006 (virus) (Chikungunya virus strain LR 2006)
[3] = biological target: ONNV (O'nyong'nyong virus, MP30) envelope glycoproteins (O'nyong'nyong virus strain MP30)

Sequence of CHIKV-37997 (virus) (Chikungunya virus strain 37997) (Q5XXP3 326-748 limits assumed, chain 1 of 2): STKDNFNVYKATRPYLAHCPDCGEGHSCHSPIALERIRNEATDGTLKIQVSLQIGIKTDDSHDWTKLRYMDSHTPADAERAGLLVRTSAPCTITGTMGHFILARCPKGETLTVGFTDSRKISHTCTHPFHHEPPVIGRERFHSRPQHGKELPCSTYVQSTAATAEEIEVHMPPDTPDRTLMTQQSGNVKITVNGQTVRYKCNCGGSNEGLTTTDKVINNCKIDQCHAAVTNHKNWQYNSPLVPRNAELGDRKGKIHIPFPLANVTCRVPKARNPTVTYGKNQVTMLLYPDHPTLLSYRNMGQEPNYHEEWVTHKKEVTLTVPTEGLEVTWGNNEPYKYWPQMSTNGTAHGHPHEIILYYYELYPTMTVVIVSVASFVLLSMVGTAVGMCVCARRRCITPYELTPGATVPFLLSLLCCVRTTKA
Sequence of CHIKV-37997 (virus) (Chikungunya virus strain 37997) (Q5XXP3 810-1248 limits assumed, chain 2 of 2): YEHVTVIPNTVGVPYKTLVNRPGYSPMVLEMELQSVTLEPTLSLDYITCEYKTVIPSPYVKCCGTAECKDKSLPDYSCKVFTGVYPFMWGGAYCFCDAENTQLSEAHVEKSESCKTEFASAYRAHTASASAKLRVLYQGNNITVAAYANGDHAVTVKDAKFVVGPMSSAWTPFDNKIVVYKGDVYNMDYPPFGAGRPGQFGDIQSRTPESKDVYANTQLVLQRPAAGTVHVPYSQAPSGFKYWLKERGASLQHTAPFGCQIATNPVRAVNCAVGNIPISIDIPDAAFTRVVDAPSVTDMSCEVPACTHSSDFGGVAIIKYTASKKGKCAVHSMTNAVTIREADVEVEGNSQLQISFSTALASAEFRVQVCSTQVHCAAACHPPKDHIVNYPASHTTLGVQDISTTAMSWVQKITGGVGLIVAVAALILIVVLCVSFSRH

| Binder | FRNT neutralisation, 37997 EC50 [1] [µg/mL] | FRNT neutralisation, LR 2006 EC50 [2] [µg/mL] | FRNT neutralisation of ONNV, EC50 [3] [µg/mL] |
| --- | --- | --- | --- |
| B1 | 0.002 | 0.005 | – |
| B2 | 0.004 | 0.031 | – |
| B3 | – | – | < 0.05 |
| B4 | 0.91 | 0.061 | < 0.05 |
| B5 | 0.526 | 0.182 | – |
| B6 | 0.35 | 0.248 | – |
